Data reported in US20100215684A1 (UNIVERSITY OF QUEENSLAND, published 2010).

Biological target: T1, Human fibrinogen (Sigma), biotinylated (human, UniProt P02671 20-629; P02675 31-491; P02679 27-437)
T1 construct: also called biotinylated fibrinogen
T1 sequence 1: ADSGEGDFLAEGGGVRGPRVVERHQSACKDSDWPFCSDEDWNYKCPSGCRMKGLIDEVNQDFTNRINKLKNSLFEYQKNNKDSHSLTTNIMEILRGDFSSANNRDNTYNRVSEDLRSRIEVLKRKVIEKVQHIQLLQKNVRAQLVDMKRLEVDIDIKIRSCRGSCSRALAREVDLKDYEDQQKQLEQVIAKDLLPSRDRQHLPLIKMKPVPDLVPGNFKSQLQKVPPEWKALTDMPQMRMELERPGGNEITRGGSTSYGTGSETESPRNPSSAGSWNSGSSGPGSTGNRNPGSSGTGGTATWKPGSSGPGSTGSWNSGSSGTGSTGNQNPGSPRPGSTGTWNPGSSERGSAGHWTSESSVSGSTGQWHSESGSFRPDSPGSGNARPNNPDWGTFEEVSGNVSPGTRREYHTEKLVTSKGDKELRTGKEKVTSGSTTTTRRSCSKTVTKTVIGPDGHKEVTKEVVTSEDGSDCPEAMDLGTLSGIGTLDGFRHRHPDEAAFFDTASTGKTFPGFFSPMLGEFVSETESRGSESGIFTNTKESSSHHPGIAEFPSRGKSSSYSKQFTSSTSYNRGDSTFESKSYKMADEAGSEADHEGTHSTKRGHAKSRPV
T1 sequence 2: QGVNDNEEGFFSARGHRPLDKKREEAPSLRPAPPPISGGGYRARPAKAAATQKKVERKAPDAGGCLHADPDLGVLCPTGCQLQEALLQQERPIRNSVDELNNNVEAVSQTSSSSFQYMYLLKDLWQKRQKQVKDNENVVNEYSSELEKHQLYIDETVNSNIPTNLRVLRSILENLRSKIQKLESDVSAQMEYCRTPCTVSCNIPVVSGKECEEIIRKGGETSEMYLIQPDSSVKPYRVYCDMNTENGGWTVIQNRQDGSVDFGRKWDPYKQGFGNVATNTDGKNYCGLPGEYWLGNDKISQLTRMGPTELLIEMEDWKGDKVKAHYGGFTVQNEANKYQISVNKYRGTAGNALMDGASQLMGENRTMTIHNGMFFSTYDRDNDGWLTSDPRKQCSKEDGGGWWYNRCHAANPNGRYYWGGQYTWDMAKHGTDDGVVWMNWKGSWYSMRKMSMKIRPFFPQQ
T1 sequence 3: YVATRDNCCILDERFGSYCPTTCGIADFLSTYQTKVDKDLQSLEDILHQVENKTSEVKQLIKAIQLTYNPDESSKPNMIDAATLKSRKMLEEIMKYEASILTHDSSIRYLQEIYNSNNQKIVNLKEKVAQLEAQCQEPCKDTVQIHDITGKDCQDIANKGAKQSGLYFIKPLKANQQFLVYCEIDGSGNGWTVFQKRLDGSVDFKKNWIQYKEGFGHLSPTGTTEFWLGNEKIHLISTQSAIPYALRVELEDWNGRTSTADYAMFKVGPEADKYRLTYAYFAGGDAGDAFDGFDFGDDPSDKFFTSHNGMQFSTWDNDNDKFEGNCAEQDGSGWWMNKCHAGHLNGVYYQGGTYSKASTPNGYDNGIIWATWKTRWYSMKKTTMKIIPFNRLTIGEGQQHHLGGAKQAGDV
Test: fibrinogen binding of expressed peptides (data not shown)

B1: S. iniae strain QMA136 M protein C-terminal amino acid sequence (309 amino acid peptide expressed from isolate QMA0136) (other)
chain: MAEIQEEANKKIAAVQTELENIDSENQSLSTANEQLKADLEQAARELDTLQSSYYTVENEKAELQKQLAEKDAKIAELEANNTELTATVADLTKALEAAKKEAEEKPALKAKVAELEKALAEAKGLGTKVAELEKDLEKAQAEAKDLETKLAETKAELEKVQAEKAELEATIEKMKKEHAEELDKLNALLADKEKLVEALNKEIEALKKDFDEKSNHSAQEKAKFQEELERLKKELAAKINMPMGNTKGMANAAGNAQTPANNGQNNAVKNQLPSTGDKAGNPFFTASAIAVMVGAGTLAYGRKRKEEE
notes: The expression construct is not described; also called QMA136 C-terminal fragment
Does B1 bind?
Result: no binding
